Among the data in publication PMC11110689 are EC50 of the oxygen level for oxomer formation values, retold here.

For this assay, the target named is factor inhibiting HIF (FIH), V5-tagged (FIH-V5) (UniProt Q9NWT6). As to the kind of experiment: immunoblot of a denaturation-resistant (SDS-PAGE) complex; cells co-transfected, 24 h at the indicated oxygen levels (18.5–1% O2), blots quantified, oxygen sensitivity calculated.
Sequence of UniProt Q9NWT6 (Q9NWT6 whole entry): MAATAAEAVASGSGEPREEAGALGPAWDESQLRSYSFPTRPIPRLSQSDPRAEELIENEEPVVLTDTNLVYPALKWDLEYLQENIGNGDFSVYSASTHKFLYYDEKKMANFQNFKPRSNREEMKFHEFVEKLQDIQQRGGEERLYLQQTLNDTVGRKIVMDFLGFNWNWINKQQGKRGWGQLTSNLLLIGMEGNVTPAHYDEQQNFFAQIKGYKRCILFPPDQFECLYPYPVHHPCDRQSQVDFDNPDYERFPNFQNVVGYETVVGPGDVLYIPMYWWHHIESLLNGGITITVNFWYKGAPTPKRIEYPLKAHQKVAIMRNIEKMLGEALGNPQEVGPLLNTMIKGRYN

As to “NF-κB inhibitor β (IκBβ), FLAG-tagged (IκBβ-FLAG) (from UniProt Q15653 1-356) (natural protein)”, the EC50 of the oxygen level for oxomer formation was 7.6 % O2.
